# Results from article PMC3448830.
# What was measured:
# Details in all cases: other: substrate, Hanes-Woolf plots, pH 8.5, room temperature, 16 h
# NCc1csc(C(=O)O)c1 = assay: Substrate activity for GABA-AT; assay type: biochemical, pig
# NCc1coc(C(=O)O)c1 = assay: Substrate activity for GABA-AT; assay type: biochemical, pig
# NCc1ccc(C(=O)O)[nH]1 = assay: Substrate activity for GABA-AT; assay type: biochemical, pig
# NCc1ccc(C(=O)O)o1 = assay: Substrate activity for GABA-AT; assay type: biochemical, pig
# NCc1ccc(C(=O)O)s1 = assay: Substrate activity for GABA-AT; assay type: biochemical, pig
# NCc1cocc1C(=O)O = assay: Substrate activity for GABA-AT; assay type: biochemical, pig
# NCc1c[nH]c(C(=O)O)c1 = assay: Substrate activity for GABA-AT; assay type: biochemical, pig
# NCCCC(=O)O = assay: purified protein, by the assay type
substance,measurement,setting,value
GABA-AT (Sus scrofa),Km,NCc1csc(C(=O)O)c1,1700 ± 300 µM
same,Km,NCc1coc(C(=O)O)c1,310 ± 70 µM
same,kcat,NCc1coc(C(=O)O)c1,3.83e-05 ± 1.67e-06 s⁻¹
same,kcat/Km,NCc1coc(C(=O)O)c1,0.123 M⁻¹ s⁻¹
same,Km,NCc1ccc(C(=O)O)[nH]1,9500 ± 300 µM
same,kcat,NCc1ccc(C(=O)O)[nH]1,2.5e-05 ± 3.33e-06 s⁻¹
same,kcat/Km,NCc1ccc(C(=O)O)[nH]1,0.00267 M⁻¹ s⁻¹
same,Km,NCc1ccc(C(=O)O)o1,2100 ± 100 µM
same,kcat,NCc1ccc(C(=O)O)o1,0.000567 ± 6.67e-05 s⁻¹
same,kcat/Km,NCc1ccc(C(=O)O)o1,0.267 M⁻¹ s⁻¹
same,Km,NCc1ccc(C(=O)O)s1,6300 ± 200 µM
same,kcat,NCc1ccc(C(=O)O)s1,0.000167 ± 5e-05 s⁻¹
same,kcat/Km,NCc1ccc(C(=O)O)s1,0.0267 M⁻¹ s⁻¹
same,Km,NCc1cocc1C(=O)O,2800 ± 500 µM
same,kcat,NCc1cocc1C(=O)O,1.38e-05 ± 8.33e-07 s⁻¹
same,kcat/Km,NCc1cocc1C(=O)O,0.005 M⁻¹ s⁻¹
same,Km,NCc1c[nH]c(C(=O)O)c1,1400 ± 300 µM
same,kcat,NCc1c[nH]c(C(=O)O)c1,5.67e-05 ± 5e-06 s⁻¹
same,kcat/Km,NCc1c[nH]c(C(=O)O)c1,0.04 M⁻¹ s⁻¹
same,Km,NCCCC(=O)O,1300 ± 300 µM
same,kcat,NCCCC(=O)O,0.817 s⁻¹
same,kcat/Km,NCCCC(=O)O,643 M⁻¹ s⁻¹
